Source: US20230340071A1 (published 2023)

How the values were obtained:
[1] = target: T1, mouse IL-2 beta receptor (mouse, UniProt P16297 27-240); experiment: method not stated
T1 construct: also called mIL2RB; beta part of mIL2RBG
T1 sequence (looked up): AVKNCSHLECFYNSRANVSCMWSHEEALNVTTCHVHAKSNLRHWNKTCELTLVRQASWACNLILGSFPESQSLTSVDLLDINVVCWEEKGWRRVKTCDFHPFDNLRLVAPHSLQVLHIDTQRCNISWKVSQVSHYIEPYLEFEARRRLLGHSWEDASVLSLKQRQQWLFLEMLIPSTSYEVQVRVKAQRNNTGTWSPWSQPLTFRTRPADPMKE

[2] = target: T2, human IL-2 receptor (IL-2Rβγc) on cells (human, UniProt P14784 27-551; P31785 23-369); experiment: cell-based or functional assay
T2 sequence 1: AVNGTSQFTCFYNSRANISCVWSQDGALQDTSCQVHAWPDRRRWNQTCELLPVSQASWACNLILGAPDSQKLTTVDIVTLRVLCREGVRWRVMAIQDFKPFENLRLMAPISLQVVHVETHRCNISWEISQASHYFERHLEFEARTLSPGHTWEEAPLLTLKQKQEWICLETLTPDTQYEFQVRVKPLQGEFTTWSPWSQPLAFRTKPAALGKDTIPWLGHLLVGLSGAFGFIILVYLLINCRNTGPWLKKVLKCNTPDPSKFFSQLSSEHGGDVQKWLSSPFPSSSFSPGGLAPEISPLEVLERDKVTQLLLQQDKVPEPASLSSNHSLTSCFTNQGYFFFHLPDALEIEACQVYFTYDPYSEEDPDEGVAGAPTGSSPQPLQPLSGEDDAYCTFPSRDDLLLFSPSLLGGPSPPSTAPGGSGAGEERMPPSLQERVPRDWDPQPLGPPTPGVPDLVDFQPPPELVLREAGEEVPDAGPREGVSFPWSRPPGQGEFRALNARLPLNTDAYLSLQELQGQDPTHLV
T2 sequence 2: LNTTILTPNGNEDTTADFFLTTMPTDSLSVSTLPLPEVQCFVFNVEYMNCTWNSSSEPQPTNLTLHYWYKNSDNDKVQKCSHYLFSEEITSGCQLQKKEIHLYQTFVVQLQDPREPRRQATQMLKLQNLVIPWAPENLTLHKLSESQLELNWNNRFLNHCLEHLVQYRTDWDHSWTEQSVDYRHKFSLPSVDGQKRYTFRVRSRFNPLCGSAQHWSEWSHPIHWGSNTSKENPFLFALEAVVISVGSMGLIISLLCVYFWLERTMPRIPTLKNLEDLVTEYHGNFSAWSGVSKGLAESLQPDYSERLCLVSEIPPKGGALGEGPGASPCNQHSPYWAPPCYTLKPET

[3] = target: T2, human IL-2 receptor (IL-2Rβγc) on cells; experiment: cell-based or functional assay; remark: listed apart in the source
[4] = target: T3, Biotinylated hIL2RB (UniProt P14784 27-240, biotinylated (site not stated)); experiment: BLI
T3 chain: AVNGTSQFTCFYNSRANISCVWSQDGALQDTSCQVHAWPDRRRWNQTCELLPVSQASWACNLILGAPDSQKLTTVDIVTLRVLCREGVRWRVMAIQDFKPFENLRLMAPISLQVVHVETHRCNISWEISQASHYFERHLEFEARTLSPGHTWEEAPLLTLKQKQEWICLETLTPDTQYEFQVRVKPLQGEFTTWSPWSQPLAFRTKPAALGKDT

[5] = target: T4, hIL2RB-fc chimera (human, UniProt P14784 27-240); experiment: BLI (Octet RED96e), hIL2RB-fc (Symansis) on anti-human IgG Fc sensors
T4 construct: also called hIL2 receptor beta; hIL-2Rβ; not shown: Fc part of the bought chimera (captured on anti-human IgG Fc biosensors)
T4 sequence: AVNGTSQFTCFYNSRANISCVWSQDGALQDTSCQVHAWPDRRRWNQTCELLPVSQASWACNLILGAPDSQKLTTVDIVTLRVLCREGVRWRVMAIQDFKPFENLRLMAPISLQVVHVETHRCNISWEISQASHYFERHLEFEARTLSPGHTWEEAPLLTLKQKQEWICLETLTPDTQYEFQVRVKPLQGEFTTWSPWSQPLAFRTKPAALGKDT
Procedure: For this purpose, sensors were soaked in samples containing 20 nM of hIL2RB-fc chimera (Symansis) for 300 sec. […] Finally, sensors were removed from the protein samples and dipped in buffer solutions to promote and measure dissociation (1500 sec). The buffer used to prepare all the samples and soak the sensors was HBS-EP+from GE Healthcare, which contains 10 mM HEPES, 150 mM NaCl, 3 mM EDTA and 0.05% v/v surfactant P20, pH 7.4. Data were acquired at 30° C. using an Octet RED96e system (ForteBio) and processed using the instrument's integrated software. Kinetics were fitted to a 1:1 binding model after subtracting a buffer signal baseline and the Kd values were calculated.

[6] = target: T5, hIL-2RBG (biotinylated hIL2RG on the sensor with hIL2RB in solution) (UniProt P14784 27-240; P31785 23-262, biotinylated (site not stated)); experiment: BLI competition, inhibition of hIL-2 binding
T5 chain 1: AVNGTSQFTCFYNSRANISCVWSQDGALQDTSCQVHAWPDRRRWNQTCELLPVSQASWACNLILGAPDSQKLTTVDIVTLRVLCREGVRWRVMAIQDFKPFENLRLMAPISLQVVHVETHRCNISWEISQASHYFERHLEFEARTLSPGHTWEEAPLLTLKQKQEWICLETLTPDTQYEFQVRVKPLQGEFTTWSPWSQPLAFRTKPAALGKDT
T5 chain 2: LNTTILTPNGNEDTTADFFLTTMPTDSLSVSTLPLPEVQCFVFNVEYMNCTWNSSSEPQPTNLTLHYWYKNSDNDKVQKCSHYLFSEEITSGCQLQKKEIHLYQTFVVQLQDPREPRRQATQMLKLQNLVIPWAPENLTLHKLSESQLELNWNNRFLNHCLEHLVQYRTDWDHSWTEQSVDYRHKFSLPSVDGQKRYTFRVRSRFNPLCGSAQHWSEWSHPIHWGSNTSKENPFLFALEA

[7] = target: T6, hIL2RG-fc chimera (human, UniProt P31785 23-262); experiment: BLI (Octet RED96e), hIL2RG-fc on anti-human IgG Fc sensors, 200 nM P4 + 200 nM hIL2RB-fc
T6 construct: also called hIL2G; hIL2 receptor gamma; not shown: Fc part of the bought chimera (captured on anti-human IgG Fc biosensors)
T6 sequence: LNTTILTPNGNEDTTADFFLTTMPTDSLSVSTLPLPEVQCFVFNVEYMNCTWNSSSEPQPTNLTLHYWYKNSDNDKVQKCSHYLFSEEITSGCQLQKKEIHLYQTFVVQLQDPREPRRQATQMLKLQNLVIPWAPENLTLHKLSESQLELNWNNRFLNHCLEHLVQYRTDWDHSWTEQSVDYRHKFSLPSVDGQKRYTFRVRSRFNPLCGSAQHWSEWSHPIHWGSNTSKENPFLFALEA
Procedure: (§1) All samples were prepared using HBS-EP+ buffer from GE Healthcare, which contains 10 mM HEPES, 150 mM NaCl, 3 mM EDTA and 0.05% v/v surfactant P20, pH 7.4. Data were acquired at 30° C. using an Octet RED96e system (ForteBio) and processed using the instrument's integrated software.

[8] = target: T7, Biotinylated hIL2RG (human, UniProt P31785 23-262, limits assumed, biotinylated (site not stated)); experiment: BLI (Octet RED96), biotinylated hIL2RG on streptavidin sensors, 200 nM protein + 200 nM hIL2RB
T7 construct: also called human common gamma receptor (hIL2RG); hIL-2Rγc
T7 sequence: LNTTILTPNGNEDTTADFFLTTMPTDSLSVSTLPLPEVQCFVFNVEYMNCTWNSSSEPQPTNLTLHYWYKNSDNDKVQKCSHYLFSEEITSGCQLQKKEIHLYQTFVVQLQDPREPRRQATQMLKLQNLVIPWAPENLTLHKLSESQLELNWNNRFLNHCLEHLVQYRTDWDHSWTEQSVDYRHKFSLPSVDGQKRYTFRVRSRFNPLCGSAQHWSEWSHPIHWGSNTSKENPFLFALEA
Procedure: Biotinylated hIL2RG molecules were immobilized to Streptavidin sensors (SA, ForteBio) at 2 μg/mL in binding buffer (10 mM HEPES, pH 7.4, 150 mM NaCl, 3 mM EDTA, 0.05% surfactant P20, 0.5% non-fat dry milk). After baseline measurement in the binding buffer alone, the binding kinetics were monitored by dipping the biosensors in wells containing 200 nM of protein and 200 nM of hIL2RB for 300 sec. Data were collected in an Octet RED96 (ForteBio) and processed using the instrument's integrated software.

[9] = target: T1, mouse IL-2 beta receptor; experiment: BLI competition: mIL2RG on sensor, dilutions of P4 + 20 nM Neo-2/15; competitor Neo-2/15; read-out binding to mIL2RBG
Procedure: as §1, with “HBS-EP+buffer” for “HBS-EP+ buffer”, “software. IC50 values were estimated from response vs antagonist concentration plots.” for “software.”

[10] = target: T4, hIL2RB-fc chimera; experiment: BLI competition: hIL2RG-fc on sensor, dilutions of P4 + 20 nM Neo-2/15 + 50 nM hIL2RB-fc; competitor Neo-2/15; read-out binding to hIL2RBG
Procedure: as §1, with “HBS-EP+buffer” for “HBS-EP+ buffer”, “software. IC50 values were estimated from response vs antagonist concentration plots.” for “software.”

B1: Protein 4 (P4) (designed binder)
chain: PKKKIQLYAEHALYDAEMILKIVKTNSPPAEEELEDYAFNFELILEEIARLFESGDQKDEAEKAKRMKEWMKRIKTTASEDEQEEMANRIRKILEEWIRS
notes: P2 with H8Y and K33E; N-terminal 6xHis tag and thrombin site in the expression vector; also called S4
[1]
  Kd: 70.6 nM
[2]
  Binding Inhibition IC50 (inhibition of hIL-2 pSTAT5 signaling, human pan T cells, 0.1 nM hIL2): 0.1 nM
  Binding Inhibition IC50 (inhibition of hIL-2 pSTAT5 signaling, human pan T cells, 1 nM hIL2): 0.45 nM
  Binding Inhibition IC50 (inhibition of hIL-2 pSTAT5 signaling, human pan T cells, 10 nM hIL2): 3.3 nM
[3]
  Signaling Inhibition IC50 (1 nM hIL-2, pSTAT5, CD4+ T cells): 1.46 nM
  Signaling Inhibition IC50 (1 nM hIL-2, pSTAT5, CD8+ T cells): 0.3 nM
  Signaling Inhibition IC50 (1 nM hIL-2, pSTAT5, all T cells): 0.49 nM
[4]
  Kd: < 1 nM
[5]
  Kd: 0.06 nM
[6]
  IC50: 88 nM
[7]
  binding result: no binding (tested: 200 nM)
[8]
  binding result: no binding (tested: 200 nM)
[9]
  IC50: 67.6 nM
[10]
  IC50: 0.9 nM
